Data set [1] in a line: Thermal stability: residual activity after incubation at 60° C. for one hour. Format: biochemical. The note with it: crude recombinant enzyme; after incubation at 60° C. for 1 hour. The protocol:
Thermal stability of the enzyme was investigated by measuring the activity of the enzyme after incubation at 60° C. for one hour and finding its relative activity supposing that the activity at 60° C. under the reaction conditions (10 minutes) used for determining the optimum temperature in the above 2 shown in Table 2 was 100. As heat treatment conditions, the crude enzyme solution, a buffer (50 mM tris-HCl, pH 7.5), and 2 mM MgCl2 were used to give a total amount of 200 p1 and after retaining at 60° C. for one hour, the reaction mixture was cooled for 10 minutes in ice water. The residual enzyme activity was then measured by the conventional method.
The activity of each of the present enzyme (crude recombinant enzyme) and the crude enzyme of the control enzyme after incubation at 60° C. for 1 hour was measured and a relative activity of it was determined supposing that the activity at 60° C. under the reaction conditions (10 minutes) for determining the optimum temperature in the above 2 shown in Table 2 is 100. The relative activity was used as a heat resistance index of the enzyme. As heat treatment conditions, the crude enzyme solution, a buffer (50 mM tris-HCl, pH 7.5), and 2 mM MgCl2 were used to give a total amount of 200 p1 and after retaining at 60° C. for one hour, the reaction mixture was cooled for 10 minutes in ice water. The residual enzyme activity was measured by the conventional method.

Data set [2] in a line: Ketose 3-epimerase activity ratio (T70/T50) at reaction temperature of 70° C. to 50° C. The data set is classed as biochemical. The note with it: crude recombinant enzyme; ratio of activity at 70° C. to activity at 50° C., 10 min reaction. The method, then:
An enzyme having higher heat resistance than an amino acid substitution-free wild type enzyme can be obtained by introducing mutation into the gene of the ketose 3-epimerase of the present invention and substituting the corresponding amino acid residue with another amino acid residue by a site-directed mutagenesis operation to prepare various amino acid-substituted mutants. The heat resistance is evaluated by two indices, that is, a ketose 3-epimerase activity ratio (T70/T50) at the reaction temperatures of 70° C. to 50° C. and a residual activity after incubation at 60° C. for one hour.
Heat resistance of the present enzyme (crude recombinant enzyme) and the crude enzyme of the control enzyme was investigated by measuring an activity at 70° C. and an activity at 50° C. under the reaction conditions (10 minutes) used for determining the optimum temperature in the above 2 shown in Table 2 and finding their ratio (T70/T50).

B1: Ketose 3-epimerase mutant 18: amino acid-substituted mutant of SEQ ID NO: 1 (protein)
chain: MKIGCHGLVWTGRFDAEGIRYSVQKTKEAGFDLIEFPLMDPFSFDVATAKSALAEHGLTASASLGLSEATDVSSEDPAIVKAGEELLNRALDVLAELGATEFCGVIYSAMKKYMEPATEQGLSNSKAAVGRVVDRAAGLGINVSLEVVNRYETNVLNTGRQALSYLSDVKRPNLGVHLDTYHMNIEESDMFSPVLDTAEALKYVHIGESHRGYLGTGSVDFDNFFKALGRIGYDGPVVFESFSSAVVAPDLSRMLGIWRNLWADNEELGAHANAFIRDKLTAIKTIELH
modifications: Arthrobacter histidinolovorans
With B1, the “Residual activity (%)” value in data set [1] was 72.1%. The T70/T50 in data set [2] stood at 1.85.

B2: Ketose 3-epimerase mutant 23: amino acid-substituted mutant of SEQ ID NO: 1 (protein)
chain: MKIGCHGLVWTGRFDAEGIRYSVQKTKEAGFDLIEFPLMDPFSFDVATAKSALAEHGLTASASLGLSEATDVSSEDPAIVKAGEELLNRALDVLAELGATDFCGVIYSAMKKYMEPATEQGLSNSKAAVGRVVDRAAGLGINVSLEVVNRYETNVLNTGRQALSYLSDVKRGNLGVHLDTYHMNIEESDMFSPVLDTAEALKYVHIGESHRGYLGTGSVDFDNFFKALGRIGYDGPVVFESFSSAVVAPDLSRMLGIWRNLWADNEELGAHANAFIRDKLTAIKTIELH
modifications: Arthrobacter histidinolovorans
Take B2: the “Residual activity (%)” value in data set [1] came out at 65.8%. Further, the T70/T50 in data set [2] stood at 1.69.

B3: Ketose 3-epimerase mutant 28: amino acid-substituted mutant of SEQ ID NO: 1 (protein)
chain: MKIGCHGLVWTGRFDAEGIRYSVQKTKEAGFDLIEFPLMDPFSFDVATAKSALAEHGLTASASLGLSEATDVSSEDPAIVKAGEELLNRALDVLAELGATEFCGVIYSAMKKYMEPATEQGLSNSKAAIGRVVDRAAGLGINVSLEVVNRYETNVLNTGRQALSYLSDVKRPNLGVHLDTYHMNIEESDMFSPVLDTAEVLKYVHIGESHRGYLGTGNVDFDNFFKALGRIGYDGPVVFESFSSAVVAPDLSRMLGIWRNLWADNEELGAHANAFIRDKLTAIKTIELH
modifications: Arthrobacter histidinolovorans
Turning to B3, the “Residual activity (%)” value in data set [1] is 112.7%. The T70/T50 in data set [2] came out at 1.62.

B4: Ketose 3-epimerase mutant 20: amino acid-substituted mutant of SEQ ID NO: 1 (protein)
chain: MKIGCHGLVWTGRFDAEGIRYSVQKTKEAGFDLIEFPLMDPFSFDVATAKSALAEHGLSVSASLGLSEATDVSSEDPAIVKAGEELLNRALDVLAELGATDFCGVIYSAMKKYMEPATEQGLSNSKAAIGRVVDRAAGLGINVSLEVVNRYETNVLNTGRQALSYLSDVKRPNLGVHLDTYHMNIEESDMFSPVLDTAEALKYVHIGESHRGYLGTGSVDFDNFFKALGRIGYDGPVVFESFSSAVVAPDLSRMLGIWRNLWADNEELGAHANAFIRDKLTAIKTIELH
modifications: Arthrobacter histidinolovorans
In the case of B4, the “Residual activity (%)” value in data set [1] came out at 52.1%. Moreover, the T70/T50 in data set [2] is 1.79.

B5: Ketose 3-epimerase mutant 21: amino acid-substituted mutant of SEQ ID NO: 1 (protein)
chain: MKIGCHGLVWTGRFDAEGIRYSVQKTKEAGFDLIEFPLMDPFSFDVATAKSALAEHGLSVSASLGLSEATDVSSEDPAIVKAGEELLNRALDVLAELGATEFCGVIYSAMKKYMEPATEQGLSNSKAAVGRVVDRAAGLGINVSLEVVNRYETNVLNTGRQALSYLSDVKRPNLGVHLDTYHMNIEESDMFSPVLDTAEALKYVHIGESHRGYLGTGSVDFDNFFKALGRIGYDGPVVFESFSSAVVAPDLSRMLGIWRNLWADNEELGAHANAFIRDKLTAIKTIELH
modifications: Arthrobacter histidinolovorans
On to B5, for which the “Residual activity (%)” value in data set [1] is recorded as 59.4%. Also, in data set [2], the T70/T50 is 1.70.

B6: Ketose 3-epimerase mutant 22: amino acid-substituted mutant of SEQ ID NO: 1 (protein)
chain: MKIGCHGLVWTGRFDAEGIRYSVQKTKEAGFDLIEFPLMDPFSFDVATAKSALAEHGLSVSASLGLSEATDVSSEDSAIVKAGEELLNRALDVVAELGATEFCGVIYSSMKKYMEPATEQGLSNSKAAIGRVVDRAAGLGINVALEVVNRYETNVLNTGRQALSYLQDVKRPNLGVHLDTYHMNIEESDMFSPVLDTAEVLKYVHIGESHRGYLGTGNVDFDNFFKALGRIGYDGPVVFESFSSAVVAPDLSRMLGIWRNLWADNEELGAHANAFIRDKLTAIKTIELH
modifications: Arthrobacter histidinolovorans
Take B6: in data set [1], the “Residual activity (%)” value is recorded as 113.5%. In addition, the T70/T50 in data set [2] is recorded as 1.70.

B7: Ketose 3-epimerase mutant 27: amino acid-substituted mutant of SEQ ID NO: 1 (protein)
chain: MKIGCHGLVWTGRFDAEGIRYSVQKTKEAGFDLIEFPLMDPFSFDVATAKSALAEHGLTASASLGLSEATDVSSEDPAIVKAGEELLNRALDVLAELGATEFCGVIYSAMKKYMEPATEQGLSNSKAAIGRVVDRAAGLGINVSLEVVNRYETNVLNTGRQALSYLSDVKRPNLGVHLDTYHMNIEESDMFSPVLDTAEALKYVHIGESHRGYLGTGSVDFDNFFKALGRIGYDGPVVFESFSSAVVAPDLSRMLGIWRNLWADNEELGAHANAFIRDKLTAIKTIELH
modifications: Arthrobacter histidinolovorans
Turning to B7, the “Residual activity (%)” value in data set [1] is 61.9%. In data set [2], the T70/T50 came to 1.64.

B8: Ketose 3-epimerase mutant 26: amino acid-substituted mutant of SEQ ID NO: 1 (protein)
chain: MKIGCHGLVWTGRFDAEGIRYSVQKTKEAGFDLIEFPLMDPFSFDVATAKSALAEHGLTASASLGLSEATDVSSEDPAIVKAGEELLNRALDVLAEMGATDFCGVIYSAMKKYMEPATEQGLSNSKAAVGRVVDRAAGLGINVSLEVVNRYETNVLNTGRQALSYLSDVKRPNLGVHLDTYHMNIEESDMFSPVLDTAEALKYVHIGESHRGYLGTGSVDFDNFFKALGRIGYDGPVVFESFSSAVVAPDLSRMLGIWRNLWADNEELGAHANAFIRDKLTAIKTIELH
modifications: Arthrobacter histidinolovorans
Regarding B8, the “Residual activity (%)” value in data set [1] was 68.9%. The T70/T50 in data set [2] stood at 1.65.

B9: Ketose 3-epimerase mutant 19: amino acid-substituted mutant of SEQ ID NO: 1 (protein)
chain: MKIGCHGLVWTGRFDAEGIRYSVQKTKEAGFDLIEFPLMDPFSFDVATAKSALAEHGLSVSASLGLSEATDVSSEDPAIVKAGEELLNRALDVLAELGATDFCGVIYSAMKKYMEPATEQGLSNSKAAIGRVVDRAAGLGINVSLEVVNRYETNVLNTGRQALSYLSDVKRPNLGVHLDTYHMNIEESDMFSPVLDTAEVLKYVHIGESHRGYLGTGNVDFDNFFKALGRIGYDGPVVFESFSSAVVAPDLSRMLGIWRNLWADNEELGAHANAFIRDKLTAIKTIELH
modifications: Arthrobacter histidinolovorans
With B9, in data set [1], the “Residual activity (%)” value was found to be 91.2%. In addition, in data set [2], the T70/T50 amounted to 1.85.

B10: Ketose 3-epimerase mutant 24: amino acid-substituted mutant of SEQ ID NO: 1 (protein)
chain: MKIGCHGLVWTGRFDAEGIRYSVQKTKEAGFDLIEFPLMDPFSFDVATAKSALAEHGLTASASLGLSEATDVSSEDPAIVKAGEELLNRALDVLAELGATDFCGVIYSAMKKYMEPATEQGLSNSKAAVGRVVDRAAGLGINVSLEVVNRYETNVLNTGRQALSYLQDVKRPNLGVHLDTYHMNIEESDMFSPVLDTAEALKYVHIGESHRGYLGTGSVDFDNFFKALGRIGYDGPVVFESFSSAVVAPDLSRMLGIWRNLWADNEELGAHANAFIRDKLTAIKTIELH
modifications: Arthrobacter histidinolovorans
As to B10, the “Residual activity (%)” value in data set [1] amounted to 55.4%. Further, the T70/T50 in data set [2] is on record as 1.68.

B11: Ketose 3-epimerase mutant 25: amino acid-substituted mutant of SEQ ID NO: 1 (protein)
chain: MKIGCHGLVWTGRFDAEGIRYSVQKTKEAGFDLIEFPLMDPFSFDVATAKSALAEHGLTASASLGLSEATDVSSEDPAIVKAGEELLNRALDVLAELGATDFCGVIYSAMKKYMEPATEQGLSNSKAAVGRVVDRAAGLGINVSLEVVNRYETNVLNTGRQALSYLSDVKRPNLGVHLDTYHMNIEESDMFSPVLDTAEALRYVHIGESHRGYLGTGSVDFDNFFKALGRIGYDGPVVFESFSSAVVAPDLSRMLGIWRNLWADNEELGAHANAFIRDKLTAIKTIELH
modifications: Arthrobacter histidinolovorans
Consider B11, for which, in data set [1], the “Residual activity (%)” value worked out at 51.4%. Moreover, the T70/T50 in data set [2] is reported as 1.66.

For the origin of these results see US20210395718A1, “NOVEL KETOSE 3-EPIMERASE” (NATIONAL UNIVERSITY CORPORATION KAGAWA UNIVERSITY, priority 2018, published 2021).
